This note sets out measurements from US20260274985A1 (MYTHIC THERAPEUTICS, published 2026).

Test [1] concerns the target T1, Human TROP2 Protein, His Tag (Acro Biosystems) (human, UniProt P09758 27-274).
T1 construct: Bought antigen used at 50 nM in the Octet screen; also called TACSTD2; not shown: His tag
T1 sequence (looked up): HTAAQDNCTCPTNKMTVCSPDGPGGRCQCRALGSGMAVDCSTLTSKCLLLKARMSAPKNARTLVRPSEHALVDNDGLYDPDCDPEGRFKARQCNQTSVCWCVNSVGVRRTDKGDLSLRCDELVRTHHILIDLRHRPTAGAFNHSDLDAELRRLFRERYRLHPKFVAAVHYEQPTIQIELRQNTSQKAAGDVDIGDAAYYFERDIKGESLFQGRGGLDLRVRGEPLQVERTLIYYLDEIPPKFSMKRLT
The test can be described thus: BLI (Octet) [1/2]. The method, then:
(§1) After allowing for four days of protein expression, cell culture supernatants were collected, quantified by SDS-PAGE analysis (DNS), and the pH dependence of the variant was evaluated using biolayer interferometry (BLI) on an Octet RED 96e instrument. Briefly, cell culture supernatants were diluted based on qualitative expression level of the variant determined by visual examination of SDS-PAGE gels, 5 μL of cell culture supernatant was diluted into 195 μL of 1×PBST, pH 7.4 for high expressors, 25 μL of cell culture supernatant was diluted into 175 μL of 1×PBST, pH 7.4 for medium expressors and 100 μL of cell culture supernatant was diluted into 100 μL of 1×PBST, pH 7.4 for low expressors for loading onto the sensor tips. The resulting diluted supernatants were then captured on an anti-human Fc sensor (Forte Bio). A baseline was established using 1×PBST (50 mM Potassium Phosphate Buffer+150 mM NaCl+0.05% Tween 20) pH 7.4, and the sensor was associated with 50 nM of TROP2 (Human TROP2 Protein, His Tag, Acro Biosystems) in 1×PBST pH 7.4 for 120 sec to generate an association curve. In the dissociation phase, the antibody-antigen complex on the sensor was exposed to 1×PBST pH 7.4 or pH 5.4, for 300 sec. Association and dissociation phase curves were examined for the starting ABPC antibody (with no substitutions) and each corresponding antibody variant at pH 5.4 and pH 7.4 to inform on two criteria: a) enhanced dissociation (i.e., higher koff values) at pH 5.4 due to histidine or alanine substitution compared to the starting ABPC, (with no substitutions), and b) reduced dissociation at pH 7.4 (i.e., lower koff values) compared to pH 5.4 in the antibody variant itself and with the starting ABPC (with no substitutions). […] It was also noted that while some mutations obliterated TROP2 binding, others were tolerated with little or n change in TROP2 binding kinetics.

Test [2] deals with T2, Human TROP2 Protein, His Tag (Acro Biosystems) (human, UniProt P09758 27-274).
T2 construct: not shown: His tag
T2 sequence (looked up): T1 sequence (looked up)
Nature of the test: Octet (BLI); antigen and pH not given.

Test [3] has as its target T3, Human TROP2 Protein, His Tag (Acro Biosystems) (human, UniProt P09758 27-274).
T3 construct: Bought protein; not shown: His tag
T3 sequence (looked up): T1 sequence (looked up)
The test can be described thus: BLI (Octet). The method, then: as §1

Where a chain is given by its changes, count along the chain named.

B1: MYT11744 (antibody, V domains shown)
VH: QVQLQESGPGLVKPSETLSLTCTVSGGSISSYGVHWIRQPPGKGLEWIGVIWTSGVTDYNSALMGRVTISVDTSKNQFSLKLSSVTAADTAVYYCARDGDYDRYTMDYWGQGTLVTVSS
VL: DIVMTQSPDSLAVSLGERATINCHASKSVSTSGYSYMHWYQQKPGQPPKLLIYLASNLESGVPDRFSGSGSGTDFTLTISSLQAEDVAVYYCQHSRELPYTFGQGTKLEIK
notes: hu7E6SVG variant, His at LCV position 24 (L1 01); screened as IgG in Expi293 supernatant
For B1, the binding result in test [1] is listed as “binds”.

B2: MYT11747 (antibody, V domains shown)
VH: B1 VH
VL: B1 VL with H24R, K27H
notes: hu7E6SVG variant, His at LCV position 27 (L1 04); screened as IgG in Expi293 supernatant
Consider B2, for which the binding result in test [1] is “binds”.

B3: MYT11751 (antibody, V domains shown)
VH: B1 VH
VL: B1 VL with H24R, T31H
notes: hu7E6SVG variant, His at LCV position 31 (L1 08); screened as IgG in Expi293 supernatant
For the molecule B3, in test [1], the binding result was “no binding (tested: 50 nM)”.

B4: MYT11748 (antibody, V domains shown)
VH: B1 VH
VL: B1 VL with H24R, S28H
notes: hu7E6SVG variant, His at LCV position 28 (L1 05); screened as IgG in Expi293 supernatant
For the molecule B4, in test [1], the binding result is listed as “binds”.

B5: MYT11746 (antibody, V domains shown)
VH: B1 VH
VL: B1 VL with H24R, S26H
notes: hu7E6SVG variant, His at LCV position 26 (L1 03); screened as IgG in Expi293 supernatant
With B5, the binding result in test [1] is recorded as “binds”.

B6: MYT11750 (antibody, V domains shown)
VH: B1 VH
VL: B1 VL with H24R, S30H
notes: hu7E6SVG variant, His at LCV position 30 (L1 07); screened as IgG in Expi293 supernatant
B6: the binding result in test [1] was “binds”.

B7: MYT11753 (antibody, V domains shown)
VH: B1 VH
VL: B1 VL with H24R, G33H
notes: hu7E6SVG variant, His at LCV position 33 (L1 10); screened as IgG in Expi293 supernatant
On to B7, for which the binding result in test [1] is reported as “binds”.

B8: MYT11752 (antibody, V domains shown)
VH: B1 VH
VL: B1 VL with H24R, S32H
notes: hu7E6SVG variant, His at LCV position 32 (L1 09); screened as IgG in Expi293 supernatant
In the case of B8, the binding result in test [1] is reported as “binds”.

B9: MYT11745 (antibody, V domains shown)
VH: B1 VH
VL: B1 VL with H24R, A25H
notes: hu7E6SVG variant, His at LCV position 25 (L1 02); screened as IgG in Expi293 supernatant
B9: the binding result in test [1] is reported as “binds”.

B10: MYT11754 (antibody, V domains shown)
VH: B1 VH
VL: B1 VL with H24R, Y34H
notes: hu7E6SVG variant, His at LCV position 34 (L1 11); screened as IgG in Expi293 supernatant
With B10, the binding result in test [1] is listed as “binds”.

B11: MYT13283 (antibody, V domains shown)
VH: B1 VH with D102H
VL: B1 VL with H24R, S60H
notes: Full-length IgG; also called h7E6SVG HC-LC pairing variant
With B11, in test [2], the Kd was 5.32 nM and the “Octet response at 33.33 nM (Y-Axis) nm” value was 0.108 nm.

B12: MYT13290 (antibody, V domains shown)
VH: B1 VH with M106H
VL: B1 VL with H24R, Q93H
notes: as for B11
B12: in test [2], binding was characterised by a dissociation constant (Kd) of 7.45 nM and the “Octet response at 33.33 nM (Y-Axis) nm” value was 0.103 nm.

B13: MYT11755 (antibody, V domains shown)
VH: B1 VH
VL: B1 VL with H24R, S35H
notes: hu7E6SVG variant, His at LCV position 35 (L1 12); screened as IgG in Expi293 supernatant
Consider B13, for which, in test [1], the binding result is given as “binds”.

B14: MYT11749 (antibody, V domains shown)
VH: B1 VH
VL: B1 VL with H24R, V29H
notes: hu7E6SVG variant, His at LCV position 29 (L1 06); screened as IgG in Expi293 supernatant
Take B14: in test [1], the binding result is “no binding (tested: 50 nM)”.

B15: MYT11567 (antibody, V domains shown)
VH: QVQLQQSGSELKKPGASVKVSCKASHYTFTNYGMNWVKQAPGQGLKWMGWINTYTGEPTYTDDFKGRFAFSLDTSVSTAYLQISSLKADDTAVYFCARGGFGSSYWYFDVWGQGSLVTVSS
VL: DIQLTQSPSSLSASVGDRVSITCKASQDVSIAVAWYQQKPGKAPKLLIYSASYRYTGVPDRFSGSGSGTDFTLTISSLQPEDFAVYYCQQHYITPLTFGAGTKVEIK
notes: Sacituzumab variant, His at HCV position 26 (H1 01)
For B15, the binding result in test [3] is “binds”.

B16: MYT13433 (antibody, V domains shown)
VH: B15 VH with H26G, D62H
VL: B15 VL with A51H, Y53H, I93H
notes: IgG; also called Sacituzumab HC-LC pairing variant
Turning to B16, in test [2], binding was put at a Kd of 4.36 nM and the “Octet response at 33.33 nM (Y-Axis) nm” value was 0.12 nm.

B17: MYT11690 (antibody, V domains shown)
VH: QVQLVQSGAEVKKPGASVKVSCKASGYTFTTAGMQWVRQAPGQGLEWMGWINTHSGVPKYAEDFKGRVTISADTSTSTAYLQLSSLKSEDTAVYYCARSGFGSSYWYFDVWGQGTLVTVSS
VL: B15 VL with L4M, S20T, I31T, S52H, D60S, A100Q, V104L
notes: IgG; also called Datopotamab LC variant
In the case of B17, in test [2], the Kd is 3.4 nM and the “Octet response at 33.33 nM (Y-Axis) nm” value came to 0.0911 nm.

B18: MYT13429 (antibody, V domains shown)
VH: B15 VH with H26G, G66H
VL: B15 VL with S30H, A51H, I93H
notes: as for B16
As for B18, in test [2], the Kd stood at 2.85 nM and the “Octet response at 33.33 nM (Y-Axis) nm” value turned out to be 0.122 nm.

B19: MYT11571 (antibody, V domains shown)
VH: B15 VH with H26G, T30H
VL: B15 VL
notes: Sacituzumab variant, His at HCV position 30 (H1 05)
In the case of B19, the binding result in test [3] is “binds”.

B20: MYT11568 (antibody, V domains shown)
VH: B15 VH with H26G, Y27H
VL: B15 VL
notes: Sacituzumab variant, His at HCV position 27 (H1 02)
Take B20: the binding result in test [3] is reported as “binds”.

B21: MYT11572 (antibody, V domains shown)
VH: B15 VH with H26G, N31H
VL: B15 VL
notes: Sacituzumab variant, His at HCV position 31 (H1 06)
Take B21: the binding result in test [3] is “binds”.

B22: MYT11570 (antibody, V domains shown)
VH: B15 VH with H26G, F29H
VL: B15 VL
notes: Sacituzumab variant, His at HCV position 29 (H1 04)
On to B22, for which the binding result in test [3] was “binds”.

B23: MYT13265 (antibody, V domains shown)
VH: B17 VH with R98H
VL: B15 VL with L4M, S20T, I31T, Y53H, D60S, A100Q, V104L
notes: Full-length IgG; also called Datopotamab HC-LC pairing variant
In the case of B23, in test [2], the Kd turned out to be 9.5 nM and the “Octet response at 33.33 nM (Y-Axis) nm” value was 0.0712 nm.

B24: MYT13368 (antibody, V domains shown)
VH: B15 VH with H26G, Y60H
VL: B15 VL with S30H, V33H
notes: as for B16
With B24, in test [2], the dissociation constant Kd worked out at 1.03 nM and the “Octet response at 33.33 nM (Y-Axis) nm” value was 0.14 nm.

B25: MYT11569 (antibody, V domains shown)
VH: B15 VH with H26G, T28H
VL: B15 VL
notes: Sacituzumab variant, His at HCV position 28 (H1 03)
With B25, the binding result in test [3] is “binds”.

B26: MYT13160 (antibody, V domains shown)
VH: B15 VH with H26G, Y32H
VL: B15 VL with S30H
notes: as for B16
Regarding B26, in test [2], the Kd came out at 0.009 nM and the “Octet response at 33.33 nM (Y-Axis) nm” value was 0.077 nm.

B27: MYT13424 (antibody, V domains shown)
VH: B15 VH with H26G, Y60H
VL: B15 VL with S30H, A51H, I93H
notes: as for B16
For the molecule B27, in test [2], binding was characterised by a dissociation constant (Kd) of 1.97 nM and the “Octet response at 33.33 nM (Y-Axis) nm” value stood at 0.123 nm.

B28: MYT11691 (antibody, V domains shown)
VH: B17 VH
VL: B15 VL with L4M, S20T, I31T, Y53H, D60S, A100Q, V104L
notes: as for B17
Consider B28, for which, in test [2], the Kd is 6.03 nM and the “Octet response at 33.33 nM (Y-Axis) nm” value is 0.0719 nm.

B29: MYT13426 (antibody, V domains shown)
VH: B15 VH with H26G, D63H
VL: B15 VL with S30H, A51H, I93H
notes: as for B16
For the molecule B29, in test [2], the affinity, expressed as Kd, was 1.51 nM and the “Octet response at 33.33 nM (Y-Axis) nm” value stood at 0.132 nm.
